According to publication PMC9482650, “Quantitative fragmentomics allow affinity mapping of interactomes” (Nature Communications, 2022):
Residue numbers refer to the chain shown, from its start.

Experiments:
Assay in all cases: holdup assay
Set-up in all cases: key: below the threshold = too weak to quantify, mostly under pKd 3.1 to 4
IL16_1, Q14005 = biological target: IL16_1, Q14005
GRID2IP_2, A4D2P6 = biological target: GRID2IP_2, A4D2P6
SCRIB_1, Q14160 = biological target: SCRIB_1, Q14160
Inadl_5, Q8NI35 = biological target: Inadl_5, Q8NI35
FRMPD4, Q14CM0 = biological target: FRMPD4, Q14CM0
MAGI2_3, Q86UL8 = biological target: MAGI2_3, Q86UL8
FRMPD3, Q5JV73 = biological target: FRMPD3, Q5JV73
DLG2_3, Q15700 = biological target: DLG2_3, Q15700
MAGI2_4, Q86UL8 = biological target: MAGI2_4, Q86UL8
LIN7A, O14910 = biological target: T1, LIN7A, O14910
T1 sequence (O14910 103-200, limits assumed, looked up): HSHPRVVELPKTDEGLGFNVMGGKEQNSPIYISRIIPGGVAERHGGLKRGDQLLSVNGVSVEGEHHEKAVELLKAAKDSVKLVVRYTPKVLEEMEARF

DLG4_2, P78352 = biological target: DLG4_2, P78352
LNX1_3, Q8TBB1 = biological target: LNX1_3, Q8TBB1
LNX1_1, Q8TBB1 = biological target: LNX1_1, Q8TBB1
PTPN13_1, Q12923 = biological target: T2, PTPN13_1, Q12923
T2 sequence (Q12923 1088-1188, limits assumed, looked up): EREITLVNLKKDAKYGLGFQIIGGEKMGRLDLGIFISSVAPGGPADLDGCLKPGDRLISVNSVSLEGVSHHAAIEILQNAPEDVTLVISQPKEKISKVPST

GRID2IP_1, A4D2P6 = biological target: GRID2IP_1, A4D2P6
PCLO, Q9Y6V0 = biological target: T3, PCLO, Q9Y6V0
T3 sequence (Q9Y6V0 4491-4600, limits assumed, looked up): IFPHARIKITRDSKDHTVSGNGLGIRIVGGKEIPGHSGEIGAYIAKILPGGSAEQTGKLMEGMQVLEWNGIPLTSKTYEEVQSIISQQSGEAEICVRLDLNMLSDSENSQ

PDZRN4_1, Q6ZMN7 = biological target: PDZRN4_1, Q6ZMN7
APBA2_2, Q99767 = biological target: T4, APBA2_2, Q99767
T4 sequence (Q99767 654-744, limits assumed, looked up): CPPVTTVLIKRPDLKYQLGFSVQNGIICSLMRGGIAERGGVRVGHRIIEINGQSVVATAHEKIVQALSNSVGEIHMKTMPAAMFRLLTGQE

TJP1_2, Q07157 = biological target: TJP1_2, Q07157
FRMPD1, Q5SYB0 = biological target: T5, FRMPD1, Q5SYB0
T5 sequence (Q5SYB0 52-145, limits assumed, looked up): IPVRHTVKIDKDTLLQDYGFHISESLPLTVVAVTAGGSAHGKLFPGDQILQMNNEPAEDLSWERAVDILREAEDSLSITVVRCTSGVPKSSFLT

PDZD7_3, Q9H5P4 = biological target: T6, PDZD7_3, Q9H5P4
T6 sequence (Q9H5P4 857-944, limits assumed, looked up): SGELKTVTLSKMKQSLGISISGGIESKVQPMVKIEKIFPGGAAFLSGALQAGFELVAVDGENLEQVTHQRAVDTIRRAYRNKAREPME

GRIP1_7, Q9Y3R0 = biological target: T7, GRIP1_7, Q9Y3R0
T7 sequence (Q9Y3R0 999-1096, limits assumed, looked up): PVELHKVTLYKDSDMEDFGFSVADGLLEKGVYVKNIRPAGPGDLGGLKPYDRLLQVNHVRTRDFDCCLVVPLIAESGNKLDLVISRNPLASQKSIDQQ

TIAM2, Q8IVF5 = biological target: T8, TIAM2, Q8IVF5
T8 sequence (Q8IVF5 885-986, limits assumed, looked up): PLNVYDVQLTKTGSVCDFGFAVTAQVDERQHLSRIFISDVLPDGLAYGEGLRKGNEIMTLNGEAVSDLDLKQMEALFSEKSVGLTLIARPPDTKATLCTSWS

MAGI2_6, Q86UL8 = biological target: MAGI2_6, Q86UL8
MAST1, Q9Y2H9 = biological target: MAST1, Q9Y2H9
GRIP1_4, Q9Y3R0 = biological target: T9, GRIP1_4, Q9Y3R0
T9 sequence (Q9Y3R0 467-571, limits assumed, looked up): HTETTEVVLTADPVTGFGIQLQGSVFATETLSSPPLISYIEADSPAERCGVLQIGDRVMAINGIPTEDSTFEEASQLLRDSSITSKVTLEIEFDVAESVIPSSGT

LIN7B, Q9HAP6 = biological target: T10, LIN7B, Q9HAP6
T10 sequence (Q9HAP6 88-185, limits assumed, looked up): T1 sequence (O14910 103-200, limits assumed, looked up) with S2A, V20I, I35V, E42D, H65Q, K77Q, D78G, K89R

[1] = plain residues with an end cap or a label only (N-terminal biotin on a linker: ado-ado)
[2] = plain residues with an end cap or a label only (N-terminal biotin on a linker: ahx)
[3] = plain residues with an end cap or a label only (N-terminal biotin on a linker: (peg)3)

Sequence of GRID2IP_1, A4D2P6 (A4D2P6 1-87): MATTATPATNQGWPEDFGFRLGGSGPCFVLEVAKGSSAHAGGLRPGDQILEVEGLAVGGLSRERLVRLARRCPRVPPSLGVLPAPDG
Sequence of MAST1, Q9Y2H9 (Q9Y2H9 962-1065): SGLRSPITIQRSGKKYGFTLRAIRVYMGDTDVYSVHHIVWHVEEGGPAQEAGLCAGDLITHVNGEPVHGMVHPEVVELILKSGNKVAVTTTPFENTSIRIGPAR
Sequence of MAGI2_4, Q86UL8 (Q86UL8 772-865): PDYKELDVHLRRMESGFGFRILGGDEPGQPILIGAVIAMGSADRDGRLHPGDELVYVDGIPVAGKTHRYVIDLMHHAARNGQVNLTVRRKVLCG
Sequence of LNX1_3, Q8TBB1 (Q8TBB1 500-596): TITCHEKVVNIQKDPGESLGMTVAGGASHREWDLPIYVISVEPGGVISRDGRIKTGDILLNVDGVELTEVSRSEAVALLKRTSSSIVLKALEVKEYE
Sequence of LNX1_1, Q8TBB1 (Q8TBB1 261-371): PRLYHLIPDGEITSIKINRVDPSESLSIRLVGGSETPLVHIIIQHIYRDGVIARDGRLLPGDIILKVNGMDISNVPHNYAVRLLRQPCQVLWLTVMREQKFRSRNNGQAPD
Sequence of GRID2IP_2, A4D2P6 (A4D2P6 272-370): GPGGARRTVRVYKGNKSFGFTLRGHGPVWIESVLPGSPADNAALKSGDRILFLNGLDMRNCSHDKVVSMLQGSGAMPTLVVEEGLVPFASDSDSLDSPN
Sequence of Inadl_5, Q8NI35 (Q8NI35 673-780): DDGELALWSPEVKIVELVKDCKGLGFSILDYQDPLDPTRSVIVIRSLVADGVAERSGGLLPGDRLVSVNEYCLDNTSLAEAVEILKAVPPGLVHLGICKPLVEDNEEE
Sequence of SCRIB_1, Q14160 (Q14160 718-814): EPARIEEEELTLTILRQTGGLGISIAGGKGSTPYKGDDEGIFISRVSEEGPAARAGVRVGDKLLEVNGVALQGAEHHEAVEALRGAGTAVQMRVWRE
Sequence of MAGI2_3, Q86UL8 (Q86UL8 600-682): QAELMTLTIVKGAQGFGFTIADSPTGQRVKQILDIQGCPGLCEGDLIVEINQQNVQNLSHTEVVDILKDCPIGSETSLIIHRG
Sequence of MAGI2_6, Q86UL8 (Q86UL8 1141-1229): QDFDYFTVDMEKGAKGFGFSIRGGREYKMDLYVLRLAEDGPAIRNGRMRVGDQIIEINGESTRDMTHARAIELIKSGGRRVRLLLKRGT
Sequence of DLG4_2, P78352 (P78352 155-259): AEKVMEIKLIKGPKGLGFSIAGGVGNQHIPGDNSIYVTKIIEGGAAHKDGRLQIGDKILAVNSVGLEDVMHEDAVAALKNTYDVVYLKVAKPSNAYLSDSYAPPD
Sequence of FRMPD3, Q5JV73 (Q5JV73 12-100): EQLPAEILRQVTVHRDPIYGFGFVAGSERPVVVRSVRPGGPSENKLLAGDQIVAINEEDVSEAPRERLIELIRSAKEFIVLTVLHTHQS
Sequence of FRMPD4, Q14CM0 (Q14CM0 67-160): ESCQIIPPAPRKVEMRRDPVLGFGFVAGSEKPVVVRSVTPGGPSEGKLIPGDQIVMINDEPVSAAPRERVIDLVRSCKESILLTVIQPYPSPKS
Sequence of IL16_1, Q14005 (Q14005 210-306): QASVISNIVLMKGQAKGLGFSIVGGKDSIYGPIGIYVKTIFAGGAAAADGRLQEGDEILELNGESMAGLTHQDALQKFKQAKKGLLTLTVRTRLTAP
Sequence of PDZRN4_1, Q6ZMN7 (Q6ZMN7 213-318): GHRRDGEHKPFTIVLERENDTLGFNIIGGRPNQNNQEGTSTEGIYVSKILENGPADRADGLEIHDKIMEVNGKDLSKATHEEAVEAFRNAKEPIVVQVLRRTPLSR
Sequence of TJP1_2, Q07157 (Q07157 181-274): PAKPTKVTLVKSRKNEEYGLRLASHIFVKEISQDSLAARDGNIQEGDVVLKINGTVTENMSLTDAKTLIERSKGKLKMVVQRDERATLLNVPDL

EIPAQSPTCV [FZD10, Q9ULW2]
pKd (IL16_1, Q14005; [1]): 3.79
pKd (GRID2IP_2, A4D2P6; [1]): 3.67
pKd (SCRIB_1, Q14160; [1]): 3.81
pKd (Inadl_5, Q8NI35; [1]): below the threshold
pKd (FRMPD4, Q14CM0; [1]): 3.75
pKd (MAGI2_3, Q86UL8; [1]): below the threshold
pKd (FRMPD3, Q5JV73; [1]): 3.49
pKd (DLG2_3, Q15700; [1]): below the threshold
pKd (MAGI2_4, Q86UL8; [1]): 3.65
pKd (LIN7A, O14910; [1]): 3.48
pKd (DLG4_2, P78352; [1]): 4.11
pKd (LNX1_3, Q8TBB1; [1]): below the threshold
pKd (LNX1_1, Q8TBB1; [1]): below the threshold
pKd (PTPN13_1, Q12923; [1]): 3.72
pKd (GRID2IP_1, A4D2P6; [1]): 3.72
pKd (PCLO, Q9Y6V0; [1]): 3.47
pKd (PDZRN4_1, Q6ZMN7; [1]): 3.63
pKd (APBA2_2, Q99767; [1]): 3.63
pKd (TJP1_2, Q07157; [1]): 3.78
pKd (FRMPD1, Q5SYB0; [1]): 3.56
pKd (PDZD7_3, Q9H5P4; [1]): 4.3
pKd (GRIP1_7, Q9Y3R0; [1]): 3.67
pKd (TIAM2, Q8IVF5; [1]): 3.7
pKd (MAGI2_6, Q86UL8; [1]): 3.85
pKd (MAST1, Q9Y2H9; [1]): below the threshold
pKd (GRIP1_4, Q9Y3R0; [1]): 3.64
pKd (LIN7B, Q9HAP6; [1]): below the threshold

QPRTWLQSPV [RTKN, Q9BST9]
pKd (IL16_1, Q14005; [2]): 3.95
pKd (GRID2IP_2, A4D2P6; [2]): below the threshold
pKd (SCRIB_1, Q14160; [2]): 3.69
pKd (Inadl_5, Q8NI35; [2]): below the threshold
pKd (FRMPD4, Q14CM0; [2]): below the threshold
pKd (MAGI2_3, Q86UL8; [2]): below the threshold
pKd (FRMPD3, Q5JV73; [2]): below the threshold
pKd (DLG2_3, Q15700; [2]): 3.62
pKd (MAGI2_4, Q86UL8; [2]): below the threshold
pKd (LIN7A, O14910; [2]): below the threshold
pKd (DLG4_2, P78352; [2]): 4.27
pKd (LNX1_3, Q8TBB1; [2]): below the threshold
pKd (LNX1_1, Q8TBB1; [2]): below the threshold
pKd (PTPN13_1, Q12923; [2]): below the threshold
pKd (GRID2IP_1, A4D2P6; [2]): below the threshold
pKd (PCLO, Q9Y6V0; [2]): below the threshold
pKd (PDZRN4_1, Q6ZMN7; [2]): below the threshold
pKd (APBA2_2, Q99767; [2]): below the threshold
pKd (TJP1_2, Q07157; [2]): below the threshold
pKd (FRMPD1, Q5SYB0; [2]): below the threshold
pKd (PDZD7_3, Q9H5P4; [2]): below the threshold
pKd (GRIP1_7, Q9Y3R0; [2]): below the threshold
pKd (TIAM2, Q8IVF5; [2]): below the threshold
pKd (MAGI2_6, Q86UL8; [2]): below the threshold
pKd (MAST1, Q9Y2H9; [2]): 3.85
pKd (GRIP1_4, Q9Y3R0; [2]): below the threshold
pKd (LIN7B, Q9HAP6; [2]): below the threshold

RYEDTTLVEDTVL [WNV-NS5, Q9Q6P4]
pKd (IL16_1, Q14005; [3]): below the threshold
pKd (GRID2IP_2, A4D2P6; [3]): 3.72
pKd (SCRIB_1, Q14160; [3]): 3.95
pKd (Inadl_5, Q8NI35; [3]): below the threshold
pKd (FRMPD4, Q14CM0; [3]): 4.85
pKd (MAGI2_3, Q86UL8; [3]): below the threshold
pKd (FRMPD3, Q5JV73; [3]): 3.88
pKd (DLG2_3, Q15700; [3]): below the threshold
pKd (MAGI2_4, Q86UL8; [3]): below the threshold
pKd (LIN7A, O14910; [3]): 3.59
pKd (DLG4_2, P78352; [3]): 3.7
pKd (LNX1_3, Q8TBB1; [3]): below the threshold
pKd (LNX1_1, Q8TBB1; [3]): 3.74
pKd (PTPN13_1, Q12923; [3]): below the threshold
pKd (GRID2IP_1, A4D2P6; [3]): below the threshold
pKd (PCLO, Q9Y6V0; [3]): below the threshold
pKd (PDZRN4_1, Q6ZMN7; [3]): 3.94
pKd (APBA2_2, Q99767; [3]): below the threshold
pKd (TJP1_2, Q07157; [3]): 3.55
pKd (FRMPD1, Q5SYB0; [3]): below the threshold
pKd (PDZD7_3, Q9H5P4; [3]): 4.54
pKd (GRIP1_7, Q9Y3R0; [3]): below the threshold
pKd (TIAM2, Q8IVF5; [3]): below the threshold
pKd (MAGI2_6, Q86UL8; [3]): 3.78
pKd (MAST1, Q9Y2H9; [3]): 4.3
pKd (GRIP1_4, Q9Y3R0; [3]): below the threshold
pKd (LIN7B, Q9HAP6; [3]): below the threshold
